These results are taken from publication PMC6239184, “Dynamic association of human mRNP proteins with mitochondrial tRNAs in the cytosol”.

One data set has as its target YBX3 (Homo sapiens, UniProt P16989 1-372). Put plainly: EMSA; EMSA: 1 fmol labeled RNA, 0.1-4 pmol protein, 5% native acrylamide gel; buffer, salt, pH, temperature not given (refers to Marnef et al. 2016). To be noted: protein: recombinant, tags: Strep-tag (N-terminal, in 5' primer), Ni-NTA purified, tRNA fold.
The target of the next data set is YBX1 (Homo sapiens, UniProt P67809 1-324). Described as above. To be noted: protein: recombinant, tags: Strep-tag (N-terminal, in 5' primer), Ni-NTA purified, tRNA fold.
Sequence of YBX1 (P67809 whole entry): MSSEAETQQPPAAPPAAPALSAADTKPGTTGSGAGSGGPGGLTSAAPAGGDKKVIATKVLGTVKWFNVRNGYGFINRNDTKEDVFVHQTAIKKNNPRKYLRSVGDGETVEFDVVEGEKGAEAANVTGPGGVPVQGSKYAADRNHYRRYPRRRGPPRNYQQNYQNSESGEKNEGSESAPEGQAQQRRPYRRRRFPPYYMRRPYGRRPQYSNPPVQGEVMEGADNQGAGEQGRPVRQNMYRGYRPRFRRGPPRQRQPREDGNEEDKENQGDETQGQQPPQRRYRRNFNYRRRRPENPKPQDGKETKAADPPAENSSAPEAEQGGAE

Sequence of YBX3 (P16989 whole entry): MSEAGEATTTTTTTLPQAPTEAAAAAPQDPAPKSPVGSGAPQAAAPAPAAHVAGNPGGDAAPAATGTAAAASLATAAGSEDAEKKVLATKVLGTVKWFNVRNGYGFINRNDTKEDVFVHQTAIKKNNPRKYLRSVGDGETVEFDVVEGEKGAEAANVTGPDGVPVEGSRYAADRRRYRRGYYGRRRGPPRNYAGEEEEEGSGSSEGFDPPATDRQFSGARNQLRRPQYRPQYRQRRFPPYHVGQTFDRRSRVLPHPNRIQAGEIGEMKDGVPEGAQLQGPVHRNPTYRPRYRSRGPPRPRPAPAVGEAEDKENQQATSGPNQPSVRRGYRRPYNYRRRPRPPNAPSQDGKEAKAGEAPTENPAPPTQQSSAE

B1: mt tRNAGly (structured_RNA)
RNA: ACUCUUUUAGUAUAAAUAGUACCGUUAACUUCCAAUUAACUAGUUUUGACAACAUUCAAAAAAGAGUACCA
Consider B1, for which the binding result with YBX3 and with YBX1 was “binds” each time.

B2: mt tRNALeu(UUR) (structured_RNA)
RNA: GUUAAGAUGGCAGAGCCCGGUAAUCGCAUAAAACUUAAAACUUUACAGUCAGAGGUUCAAUUCCUCUUCUUAACACCA
B2: the binding result with YBX3 (label: internal 32P-CTP) and with YBX1 (label: internal 32P-CTP) was “binds” throughout.
